Entries after “also recorded” stand apart in the source; their conditions may differ.
Tests used:
[1] = format: in vitro ADME; conditions: human, 0.5 h
Experimental: Human plasma of each culture tube treated with S100A8/A9 peptide (10 μM) or rCT-S100A8/A9 protein (10 μg/mL) was incubated at 37° C. for 0, 30, and 120 minutes, respectively. At the designated time, an acetonitrile internal standard solution of chlorpropamide was added to each culture tube, and the resulting mixture was shaken with a vortex mixer for five minutes and centrifuged for additional five minutes (14,000 rpm, 4° C.). The supernatant was then injected into an LC-MS/MS system to analyze the plasma stability of the tested substances.

[2] = Colon targeting of Cy5.5-conjugated protein in DSS-induced acute colitis mice (FACS); conditions: mouse, in vivo, ip
Experimental: FIGS. 6A-6D show the effect of rCT-S100A8/A9 peptide on colon targeting. […] Mice were exposed to 3% DSS for six days and evaluated on day 6 (left). For IB with αITGA6, αITGB1, or αActin, multiple organ harvests were used and ITGA6+ or ITGB1+ cell numbers were analyzed through FACS. […] Intraperitoneal administration of rCT-S100A8/9 conjugated with Cy5.5 for one hour and colon harvest. Colon harvests were used for IB including αITGA6, αITGB1, or αActin and ITGA6+ or ITGB1+ cell numbers were analyzed through FACS. […] Mice were treated with 3% DSS for six days and administered 1, 2, or 3 doses of Texas Red conjugated with rCT-S100A8/9. Colons were harvested in a time-dependent manner and analyzed for Texas Red+ cell numbers through FACS. Data is representative of three independent experiments with similar results. Data is shown as the mean±SD of three experiments;
Fourth, to further investigate the physiological significance of rCT-S100A8/A9 in inflammatory colitis, a DSS-induced colitis mouse model was used (FIG. 6). […] Next, to evaluate the specificity of rCT-S100A8/A9, ITGA6- or ITGB1-knockdown mice were generated by sh-lentivirus transduction. […] Finally, the pharmacodynamics of rCT-S100A8/A9 were evaluated, and according to the FACS analysis, 50% of the rCT-S100A8/A9 was retained in the colon when administered for three consecutive days to the mice with DSS-induced acute colitis (FIG. 6D).

[3] = AOM/DSS-induced colitis-associated colorectal cancer (CAC) mouse model; format: in vivo, mice
Source text: Weight of mice compared to baseline during AOM/DSS administration. In this experiment, weight loss is a surrogate indicator of colitis severity. Data is representative of two independent experiments with similar results. […] Note the higher tumor burden in the distal colon/rectum and the characteristic wrinkled texture of the proximal colon with little tumor growth. […] Most tumors are located in the distal colon, and their sizes are less than 2 mm. Data is shown as the mean±SD of six experiments. […] H&E and β-catenin stained slides show dysplastic changes similar to human colonic adenocarcinoma;
DSS-induced acute or chronic colitis and AOM/DSS CRC mouse models were prepared using 6-week-old C57BL/6 female mice (Samtako Bio, Osan, Korea). To assess the induction of acute colitis, mice were exposed ad libitum to 3% (w/v) dextran sodium sulfate (molecular weight: 36-50 kDa, MP Biomedicals, Santa Ana, CA, USA) dissolved in drinking water. The mouse models are illustrated in FIGS. 7A, 5E, and 6A. DSS solutions were prepared every two days. […] The humane endpoint for weight loss (requiring euthanasia) was 20% (compared to the original body weight of an animal). Without an approved exception request, body weight loss could not exceed 20%.
AOM/DSS-treated mice were administered rCT-S100A8/A9 four times according to the administration frequency during three DSS cycles until week 10 (FIG. 9A, top). […] Tumor induction by AOM/DSS treatment was mainly observed in the distal colon and produced colonic shortening in the CAC mouse model.

OxaR HCT116 xenograft = experiment: Parental or OxaR HCT116 xenograft tumor growth inhibition; format: in vivo, mice
Experimental: For tumor xenograft experiments, 4- to 6-week-old female athymic nude mice (Central Lab Animal Inc., Seoul, Korea) were used. 1×10^6 HCT116 cells suspended in 0.1 mL of a cell culture medium were injected subcutaneously into the animals' right axillary region and observed for 7 to 10 days while the tumor volume was measured. Treatment was initiated when the tumor size reached an average volume of 200 or 600 mm^3. The tumor volume was measured with a skin caliper every three days, calculated as (tumor length)×(tumor width)^2×0.5, and expressed in mm^3. All animals were maintained in a specific pathogen-free environment. All animal-related procedures were examined and approved by the Hanyang University Institutional Animal Care and Use Committee (protocol numbers: 2022-0145 and 2022-0266).
Next, tumor growth inhibition assays were performed under various tumor growth conditions, and rCT-S100A8/A9 treatment was started according to the size of the established tumors. For initial tumor growth, rCT-S100A8/A9 treatment was started 10 days after tumor establishment, and for actively growing tumors, rCT-S100A8/A9 treatment was started 21 days after tumor establishment.

[4] = The results of in vitro plasma stability, microsomal stability, CYP inhibition and PK profile of S100A8/A9 peptides and rCT-S100A8/A9 proteins
Experimental: (§1) Table printed on a drawing sheet, Fig. 5B
(§2) Title: The results of in vitro plasma stability, microsomal stability, CYP inhibition and PK profile of S100A8/A9 peptides and rCT-S100A8/A9 proteins
(§3) The patent's description of the figure: FIGS. 5A and 5B show the drug-like properties of rCT-S100A8/A9. […] Bacteria-purified 6×His-rCT-S100A8/9, rVehicle or rCT was analyzed by Coomassie staining or IB using αHis (bottom, left). BMDMs were incubated with rVehicle, rCT, or rCT-S100A8/9 for the indicated times and at the indicated concentrations, and then cell viability was measured by MTT assay (bottom, right). […] HLM, human liver microsomes; CYP, cytochrome P450. aTmax, arrival time; AUClast, total area under the plasma concentration-time curve from time 0 to the time of the last measurement; Cmax, maximum plasma concentration;
First reader's note: One record is the S100A8/A9 peptide and the other the recombinant rCT-S100A8/A9 protein; the CYP columns give remaining CYP isoform activity (CYP inhibition).

[5] = as above; remark: listed apart in the source
Experimental: as §1, §2, §3
First reader's note: All values were measured after ip dosing of 1 mg/kg in mice (n = 5); the footnote for the raised a is not printed on the sheet, and the title stands once above both tables.

[6] = immunostaining, vs control group

B1: TWYKIAFQRNRKTWYKIAFQRNRKTWYKIAFQRNRKTWYKIAFQRNRKTWYKIAFQRNRKGGFLVIKGGAHKSHKGGITIITFGGGHHGGFLVIKGGAHKSHKGGITIITFGGGHHGGFLVIKGGAHKSHKGGITIITFGGGHHGG (protein)
chain: TWYKIAFQRNRKTWYKIAFQRNRKTWYKIAFQRNRKTWYKIAFQRNRKTWYKIAFQRNRKGGFLVIKGGAHKSHKGGITIITFGGGHHGGFLVIKGGAHKSHKGGITIITFGGGHHGGFLVIKGGAHKSHKGGITIITFGGGHHGG
modifications: N-terminal 6xHis tag
plasma stability, remaining [1]: 100%
tissue targeting [2]: specifically targeted the colon tissues of the mice with acute colitis
colonic length ([3]; AOM/DSS): restored
histological colonic damage (H&E) ([3]; AOM/DSS): significant alleviation; also recorded: significantly alleviated
tumor burden in the distal colon ([3]; AOM/DSS): decreased
β-catenin protein levels in colon (immunohistochemistry) ([3]; AOM/DSS): effectively suppressed
body weight gain ([3]; AOM/DSS, three DSS cycles until week 10): higher weight gain rate according to the treatment frequency; also recorded: increased
epithelial-to-mesenchymal transition (profiler PCR array) ([3]; CRC colon tissues): regulated
number of tumors less than 2 mm ([3]; treatment for three consecutive days): significantly reduced
epithelial-to-mesenchymal transition in tumors (profiler PCR array) (OxaR HCT116 xenograft; HCT116 xenografts): regulates the involvement of epithelial-to-mesenchymal transition
interaction of S100 and PRRs in xenograft tumors (OxaR HCT116 xenograft; Western blot): significantly reduced
expression of E-cadherin in tumor sections (OxaR HCT116 xenograft; [6]): increased
expression of N-cadherin and β-catenin in tumor sections (OxaR HCT116 xenograft; [6]): decreased
tumor growth (OxaR HCT116 xenograft; initially growing and actively growing tumors): significantly inhibited tumor growth
Stability (% remaining after 30 min) | HLM [4]: 92.1 % remaining after 30 min
PK parameters (ip, 1 mg/kg, mice (n = 5))^a | AUClast [5]: 235.82 ± 51.48 ng·h/mL
PK parameters (ip, 1 mg/kg, mice (n = 5))^a | Cmax [5]: 213.12 ± 25.38 ng/mL
PK parameters (ip, 1 mg/kg, mice (n = 5))^a | T1/2 [5]: 1.91 ± 0.42 h
PK parameters (ip, 1 mg/kg, mice (n = 5))^a | Tmax [5]: 0.23 ± 0.0 h

From US20250154215A1, “PHARMACEUTICAL COMPOSITION FOR TREATING COLITIS OR COLORECTAL CANCER COMPRISING COLON-TARGETED S100A8/A9-DERIVED SPECIFIC PEPTIDE” (Industry-University Cooperation Foundation Hanyang …, priority 2023, published 2025)
